± gives the half width of the 95% confidence interval.
How the values were obtained:
[1] = folding stability dG unfold from trypsin proteolysis; higher = more stable
Summary of the method: (§1)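 Digests were run with trypsin and chymotrypsin at 11 concentrations in threefold dilutions, plus a no-protease condition, on designed mini-proteins in a PA-tagged cDNA display construct. The mini-proteins were under 80 residues, had no cysteine, and were kept only when AlphaFold2 dimer inter-PAE was above 15. After sequencing, Bayesian fitting of the counts gave K50, from which unfolding free energy was derived against a sequence-predicted unfolded-state K50 and a shared folded-state K50, per protease or combined.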

[2] = folding stability dG unfold (combined trypsin and chymotrypsin); higher = more stable
Summary of the method: as §1

[3] = folding stability dG unfold from chymotrypsin proteolysis; higher = more stable
Summary of the method: as §1

| Sequence | folding stability dG unfold [1] | folding stability dG unfold [2] | folding stability dG unfold [3] |
| --- | --- | --- | --- |
| SAGGSAGGSAGPNAVYLGELEVTTRNPDGDRPLRVRVELYLVPTPEGLRLLARVLEVEELSAGGSAGGSAGG [r11_113_TrMRF] | 2.81 ± 0.052 kcal/mol | 3.4 ± 0.04 kcal/mol | 3.644 ± 0.021 kcal/mol |
| SAGGSAGGSAGPPNQRHEYEIKLTIYDPDNGKKFTIKIPMESPWDMPNFMRKLADNGYIKSAGGSAGGSAGG [r11_668_TrROS] | 0.557 ± 0.14 kcal/mol | 1.12 ± 0.11 kcal/mol | 1.38 ± 0.11 kcal/mol |
| SAGGSAGGSAGPRIVAFNVPNGKTIPLFAPDGWMIRINIERDPKDGEHKMETEYVPADDISAGGSAGGSAGG [r17_287_TrROS] | -0.424 ± 0.37 kcal/mol | -0.419 ± 0.29 kcal/mol | -0.276 ± 0.44 kcal/mol |
| SAGGSAGGSAGPRYRLRIELRLERNEDGSLSLSAKIEIERIEPPPPPPRVVLYNGKLYLLSAGGSAGGSAGG [r17_418_TrROS_Hall] | 3.91 ± 0.41 kcal/mol | 4.28 ± 0.34 kcal/mol | 4.35 ± 0.21 kcal/mol |
| SAGGSAGGSAGPSDDVKPYEVEAEFLIPGTGERVRVRAEVYTLDEEKGLALVRVEVEPVLSAGGSAGGSAGG [r11_1029_TrMRF] | 1.54 ± 0.07 kcal/mol | 2.41 ± 0.18 kcal/mol | 2.88 ± 0.054 kcal/mol |
| SAGGSAGGSAGPSYIAVVEFENGERPVYLFPPNTGKLEDIVEELKKKFPSLKKITIYPAPSAGGSAGGSAGG [r11_311_TrMRF] | 3.58 ± 0.17 kcal/mol | 3.33 ± 0.087 kcal/mol | 3.01 ± 0.16 kcal/mol |
| SAGGSAGGSAGPVPKTITVTVSSPEEAEAAVKEIKPKYPNVKVERKKVGDKIVLTITVEESAGGSAGGSAGG [r17_319_JUSTAS] | 1.86 ± 0.11 kcal/mol | 1.75 ± 0.16 kcal/mol | 1.88 ± 0.093 kcal/mol |
| SAGGSAGGSAGRAEIPITFNGKKVEVEVEPDPDNGHPIITIKFGNKPVVINPDGQIRPFPSAGGSAGGSAGG [r11_732_TrROS] | -0.0507 ± 0.11 kcal/mol | 0.0302 ± 0.19 kcal/mol | -0.0926 ± 0.47 kcal/mol |
| SAGGSAGGSAGRRIVFQFPLGMPIDEIADELADNGYEVEINWEPDPNGWMTFVIEITPPDSAGGSAGGSAGG [r11_1050_TrROS] | 1.45 ± 0.016 kcal/mol | 1.97 ± 0.11 kcal/mol | 2.31 ± 0.097 kcal/mol |
| SAGGSAGGSAGRRVTINHNPENGFFRVKVYPPKGKSQVYPIPMENLEEIKKNLPPGVEIVSAGGSAGGSAGG [r11_569_TrROS] | 0.206 ± 0.12 kcal/mol | -0.102 ± 0.12 kcal/mol | -0.511 ± 0.24 kcal/mol |
| SAGGSAGGSAGSFVKGGTVYEIYKNPNTKKYTIVATPKNGKKYVFTFDSPEEAEKALKASSAGGSAGGSAGG [r11_238_TrMRF] | 1.65 ± 0.036 kcal/mol | 2.38 ± 0.065 kcal/mol | 2.64 ± 0.046 kcal/mol |
| SAGGSAGGSAGSIKEALKKLKPGDTVEIEITLKDGSKIKIRVKVIRDKKTKKYKVKIEIESAGGSAGGSAGG [r11_343_TrROS_Hall] | 4.16 ± 0.47 kcal/mol | 3.99 ± 0.31 kcal/mol | 3.84 ± 0.077 kcal/mol |
| SAGGSAGGSAGSKDTMYLLKVKDLGENELKETYIEVPAEKVQEVIDALSSDPNLEIEVIPSAGGSAGGSAGG [r17_50_TrMRF] | 1.06 ± 0.041 kcal/mol | 1.11 ± 0.064 kcal/mol | 1.09 ± 0.054 kcal/mol |
| SAGGSAGGSAGSKKKRVITIWIPPNQSIEEAKNFMDEGFPIKEIDVQTRPDGHMMVTITLSAGGSAGGSAGG [r11_97_TrROS] | 1.56 ± 0.061 kcal/mol | 1.21 ± 0.14 kcal/mol | 1.05 ± 0.14 kcal/mol |

Source: the supplement of paper PMC12764529
